# Assay results: doi:10.1101/2021.03.10.434834 (bioRxiv, 2021)
# Molecular target: SARS-CoV-2 spike protein receptor binding domain (SARS-CoV-2, UniProt P0DTC2)
# Assay: cryo-EM structure
row,Binder,binding result
1,"REGN10985 Fab (Fab, V domains shown) VH: EVQLVESGGGLVQPGRSLRLSCAASGFTFDDYAMHWVRQAPGKGLEWVSGISWNRGSIGYADSVKGRFTISRDNAKNSLYLQMSSLRAEDTALYYCAKDGERWDSVVVPSARNGMDVWGQGTTVTVSS VL: QSVLTQPPSVSGAPGQRVTISCTGSSSNIGAGYDVHWYQQLPGTAPKLLIYGNSNRPSGVPDRFSGSKSGTSASLAITGLQAEDEADYYCQSYDSSLSGSYVFGTGTKVTVL",binds
2,"REGN10989 Fab (Fab, V domains shown) VH: QVQLVQSGAEVKKPGASVKVSCKASGYIFTGYYMHWVRQAPGQGLEWMGWINPNSGGANYAQKFQGRVTLTRDTSITTVYMELSRLRFDDTAVYYCARGSRYDWNQNNWFDPWGQGTLVTVSS VL: QSALTQPASVSGSPGQSITISCTGTSSDVGTYNYVSWYQQHPGKAPKLMIFDVSNRPSGVSDRFSGSKSGNTASLTISGLQAEDEADYYCSSFTTSSTVVFGGGTKLTVL",binds
